T1: HLA-DP4 (DPB1*0402) (human), P20036
T1 chain 1: not shown
T1 chain 2: not shown

T2: HLA-DP4 (DPB1*0401) (human), P20036
T2 chain 1: not shown
T2 chain 2: not shown


How the values were obtained:
HLA-DR15 (human) = assay: competition ELISA, tracer A3 152-166
HLA-DR11 (human) = assay: competition ELISA, tracer HA 306-318
HLA-DR1 (human) = assay: competition ELISA, tracer HA 306-318
HLA-DR7 (human) = assay: competition ELISA, tracer YKL
[1] = molecular target: T1, HLA-DP4 (DPB1*0402) (human), P20036; assay: competition ELISA, tracer Oxy 271-287
HLA-DR4 (human) = assay: competition ELISA, tracer HA 306-318
HLA-DRB5 (human) = assay: competition ELISA, tracer not stated
[2] = molecular target: T2, HLA-DP4 (DPB1*0401) (human), P20036; assay: competition ELISA, tracer Oxy 271-287

Row | Binder | IC50 (HLA-DR15 (human)) [nM] | IC50 (HLA-DR11 (human)) [nM] | IC50 (HLA-DR1 (human)) [nM] | IC50 (HLA-DR7 (human)) [nM] | IC50 [1] [nM] | IC50 (HLA-DR4 (human)) [nM] | IC50 (HLA-DRB5 (human)) [nM] | IC50 [2] [nM]
1 | DPHLPTLLLGTSGSGGDDDDPHGPVQLSYYD (modifications not checked) [D31D] | 251 | 25000 | 17300 | 27500 | 28300 |  |  | 
2 | ASSYAAAQRKLLTPV (modifications not checked) [A15V] | 26500 | 4 | 1200 | 1730 |  | 35500 | 463 | 
3 | ALWNLHGQALFLGIVL (modifications not checked) [A16L] | 48 | 11000 | 79 | 122 | 725 |  | 2680 | 1180

— patent US20090130134A1, “T CD4+ Epitopes of Type I and II Latency Antigens of the Epstein-Barr Virus, Which Can Be Recognized by the majority of individuals in the caucasian populations and applications thereof” (priority 2005, published 2009)
